Results from patent US20250353920A1 (SUBDOMAIN, published 2025).

Legend:
[1] = target: T1, CD123 (Homo sapiens (Human), UniProt P26951 19-305, limits assumed); assay: library selection; assay not told
T1 sequence: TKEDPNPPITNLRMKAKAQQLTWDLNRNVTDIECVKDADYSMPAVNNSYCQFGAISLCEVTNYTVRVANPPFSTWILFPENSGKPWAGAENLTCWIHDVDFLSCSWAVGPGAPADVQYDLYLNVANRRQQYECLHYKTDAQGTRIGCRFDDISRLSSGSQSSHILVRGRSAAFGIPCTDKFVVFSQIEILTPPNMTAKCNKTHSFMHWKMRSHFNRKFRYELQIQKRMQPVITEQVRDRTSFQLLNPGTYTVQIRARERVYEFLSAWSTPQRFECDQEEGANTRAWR

[2] = target: control (IgG Fc); assay: phage ELISA, 89 identical clones, control wells
[3] = target: control (IgG Fc); assay: phage ELISA, control wells, lower end of the distribution
[4] = target: control (IgG Fc); assay: phage ELISA, control wells, upper end of the distribution

B1: SEQ ID NO 101 (designed binder)
chain: MGSWTEFDRRLDAIWDRLFALGGSEAELAAFEKEIAAFESELQAYKGKGNPEVEWLREEAADIRDYLQAYRHN
notes: DBDpp, library F3
B1: binds [1].

B2: SEQ ID NO 114 (designed binder)
chain: B1 chain
notes: DBDpp, library F3
B2: binds [1].

B3: SEQ ID NO 102 (designed binder)
chain: B1 chain
notes: DBDpp, library F3
B3: binds [1].

B4: bb10 (designed binder)
chain: MGSWAEFKQRLAAIKTRLEALGGSEAELAAFLGEIWAFEMELAAYKGKGNPEVEALGREAAAIRMELQAYRHN
B4 was tested, and the ELISA absorbance [2] was 0.067 OD, the ELISA absorbance [3] was 0.056 OD and the ELISA absorbance [4] was 0.125 OD.
